The target in assay [1] is T1, Mouse Id2: Histidine (mouse, UniProt P41136 1-134, limits assumed).
T1 construct: Fusion protein made in E. coli from vector pGW07; also called m-Id2: His; not shown: His tag
T1 sequence (looked up): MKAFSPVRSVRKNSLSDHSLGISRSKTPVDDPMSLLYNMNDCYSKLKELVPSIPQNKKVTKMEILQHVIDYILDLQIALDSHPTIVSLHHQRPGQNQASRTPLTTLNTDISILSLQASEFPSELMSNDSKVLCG
Put plainly: ELISA, Ab 0.500 µg/ml. The procedure: (§1) The rabbit monoclonal anti-human Id3 (clone #3-3) and the rabbit monoclonal anti-mouse/human Id3 (clones #6-1, 16-1, 17-3, and 42-1) produced in Example 6 were tested reactivity against the following antigens: mouse Id1:His, human Id1:His, mouse Id2:His, human Id2:His, mouse Id3:His, human Id3:His, mouse Id4:His, human Id4:His and GST.
(§2) 1. Microtiter wells (prepared in accordance with Example 6) were coated (0.1 μg/well) with mouse Id1:His, human Id1:His, human Id2:His, human Id3:His, and 1.0 μg/well with GST. [0155] 2. Antibody Diluent: 0.25% (w/v) BSA in 0.015M KPO₄ Buffer, 0.85% (w/v) NaCl, 0.1% (w/v) NaN₃, pH=7.40 [0156] 3. Rabbit monoclonal anti-human Id3 (clone #3-3) prepared in Example 7 was diluted to […] with the antibody diluent. […] 4. Rabbit monoclonal anti-mouse/human Id3 (clones #6-1, 16-1, 17-3, 42-1) prepared in Example 7 was diluted to 0.005, 0.010, 0.025, 0.05, 0.10, 0.25, and 0.50 μg/ml with the antibody diluent. […] 5. Conjugate Diluent: 50% (v/v) which consists of an aqueous solution containing Fetal Bovine Serum in 0.05 M Tris, 1% (v/v) Proclin-300, pH 7.6. [0159] 6. Conjugate: Goat anti-rabbit IgG (H+L)-HRP conjugate. [0160] 7. TMB reagent. […] 8. Stop solution (1 N HCI). Method
(§3) 1. Dispense 100 μL of antibody diluent, diluted rabbit monoclonal human Id3, and mouse/human Id3 hybridoma supernatants into appropriate wells. […] 2. Incubate at room temperature with mechanical shaking at 750 rpm for 90 minutes. [0165] 3. Remove the incubation mixture by flicking plate content into an appropriate waste container followed by rinsing the wells 5 times with distilled water. [0166] 4. Strike the wells sharply onto absorbent paper or paper towels to remove all residual water droplets. [0167] 5. Dispense 100 μL of 1:50,000 Goat Anti-Rabbit IgG-HRP Conjugate Reagent into each well. Gently mix for 5 seconds. [0168] 6. Incubate at room temperature with mechanical shaking at 750 rpm for 90 minutes. [0169] 7. Repeat procedures 3 and 4. [0170] 8. Dispense 100 μL of TMB Reagent into each well. Gently mix for 5 seconds. [0171] 9. Incubate at room temperature with mechanical shaking at 750 rpm for 20 minutes. […] 10.

Assay [2] addresses T2, glutathione S-transferase (GST) (UniProt P08515 1-218 = GST).
T2 construct: also called carrier protein GST
Put plainly: ELISA, Ab 0.500 µg/ml. The procedure: as §1, §2, §3

The target in assay [3] is T1, Mouse Id2: Histidine. Put plainly: ELISA, Ab 0.005 µg/ml. The procedure:
as §1, §2, §3

For assay [4], the target named is T3, Mouse Id1: Histidine (mouse, UniProt P20067-2 1-148, limits assumed).
T3 construct: Fusion protein made in E. coli from vector pGW07; also called m-Id1-His; not shown: His tag
T3 sequence (looked up): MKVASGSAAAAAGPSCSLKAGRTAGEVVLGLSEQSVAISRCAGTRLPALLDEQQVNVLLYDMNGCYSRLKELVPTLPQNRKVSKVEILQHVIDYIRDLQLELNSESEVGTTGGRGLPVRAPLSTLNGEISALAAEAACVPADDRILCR
Put plainly: ELISA, Ab 0.005 µg/ml. As for the experimental part: as §1, §2, §3

For assay [5], the target named is T4, Human Id1: Histidine (human, UniProt P41134 1-155, limits assumed).
T4 construct: Fusion protein made in E. coli from vector pGW07; also called h-Id1: his; not shown: His tag
T4 sequence (looked up): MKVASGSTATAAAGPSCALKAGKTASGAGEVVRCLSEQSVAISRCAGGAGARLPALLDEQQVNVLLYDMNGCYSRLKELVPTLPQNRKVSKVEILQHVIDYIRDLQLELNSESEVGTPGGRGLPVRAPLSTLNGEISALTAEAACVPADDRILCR
Put plainly: ELISA on coated wells, summary.

For assay [6], the target named is T5, Mouse Id3: Histidine (mouse, UniProt P41133 1-119).
T5 construct: Fusion protein made in E. coli from vector pGW07; also called m-Id3: His; Mouse Id3 (coated wells); not shown: His tag
T5 sequence: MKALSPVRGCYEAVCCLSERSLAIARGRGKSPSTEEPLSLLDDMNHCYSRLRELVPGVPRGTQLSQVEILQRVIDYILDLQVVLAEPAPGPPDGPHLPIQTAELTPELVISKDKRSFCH
Put plainly: ELISA on coated wells, summary.

Assay [7] concerns the target T6, Human Id2: Histidine (human, UniProt Q02363 1-134, limits assumed).
T6 construct: Fusion protein made in E. coli from vector pGW07; also called h-Id2: His; not shown: His tag
T6 sequence (looked up): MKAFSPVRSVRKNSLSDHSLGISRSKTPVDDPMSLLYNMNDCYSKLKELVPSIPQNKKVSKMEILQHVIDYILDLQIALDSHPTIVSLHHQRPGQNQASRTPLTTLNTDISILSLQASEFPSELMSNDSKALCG
Put plainly: ELISA on coated wells, summary.

Assay [8] deals with T7, Human Id3: Histidine (human, UniProt Q02535 1-119 at identity 1.00)).
T7 construct: Fusion protein made in E. coli from vector pGW07; also called h-Id3: His; Human Id3 (coated wells); not shown: His tag
T7 chain: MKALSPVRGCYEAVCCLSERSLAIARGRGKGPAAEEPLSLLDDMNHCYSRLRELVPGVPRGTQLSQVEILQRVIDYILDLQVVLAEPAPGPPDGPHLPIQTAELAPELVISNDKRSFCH
Put plainly: ELISA on coated wells, summary.

The target in assay [9] is T1, Mouse Id2: Histidine. Put plainly: ELISA on coated wells, summary.
The target of assay [10] is T3, Mouse Id1: Histidine. Put plainly: ELISA on coated wells, summary.
Assay [11] concerns the target T5, Mouse Id3: Histidine. Put plainly: ELISA, Ab 0.500 µg/ml. As for the experimental part:
as §1, §2, §3

T2 sequence (P08515 whole entry): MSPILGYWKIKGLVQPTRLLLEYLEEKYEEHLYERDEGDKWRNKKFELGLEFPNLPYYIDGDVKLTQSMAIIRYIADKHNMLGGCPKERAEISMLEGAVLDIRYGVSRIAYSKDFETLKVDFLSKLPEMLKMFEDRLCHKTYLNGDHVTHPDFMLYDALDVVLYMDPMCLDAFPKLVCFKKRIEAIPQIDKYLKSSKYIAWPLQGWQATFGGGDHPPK

B1: rabbit monoclonal anti-human Id3, clone #BCH-4/#3-3 (antibody, V domains shown)
VH: QSVEESGGRLVTPGTPLTLTCTVSGIDLSSYAMSWVRQAPGKGLEWIGVIFPSNNVYYASWAKGRFTISKTSTTVDLKITSPTTEDTATYFCASMGAFDSWGPGTLVTVSS
VL: QVLTQTPSPVSAAVGGTVTINCQASQSIYNDNDLAWFQQKPGQPPKLLIYDASTLTSGVPSRFKGSGSGTQFTLTISDLDCDDAATYYCAARYSGNIYGFGGGTEVVVK
notes: Rabbit IgG from a rabbit hybridoma; also called h Id3 MoAb 3-3
On to B1, for which the A450 in [1] turned out to be 0.05 A450; in [2] it was 0.05 A450; in [3], 0.048 A450; in assay [4], 0.044 A450.

B2: rabbit monoclonal anti-mouse/human Id3, clone #BCH-4/#16-1 (antibody, V domains shown)
VH: QSVEESGGRLVTPGTPLTLTCTASGFSLSSYYIHWVRQAPGKALEWIGYISDGGTTYYASWAKGRFTISKTSSTTVDLKMTSLTTEDTATYFCARQGFNIWGPGTLVTVSL
VL: AVLTQTPSPVSAAVGGTVTISCQSSQSVYNNNWLSWFQQKSGQPPKLLIYETSKLESGVPSRFKGSGSGTQFTLTIIDVQCDDAATYYCLGGYWTTSDNNIFGGGTEVVVK
notes: Rabbit IgG from a rabbit hybridoma; also called m/h Id3 MoAb 16-1
For the molecule B2, the “Cross-reactivity (%)” value in assay [5] is less than 1%; in assay [6], 100%; in [7], less than 1%; in [8], 100%; in assay [9], less than 1%; in [10], less than 1%. Further, the A450 in assay [11] was 3.61 A450; in [1] it was 0.067 A450; in assay [2] it was 0.053 A450; in [3], 0.045 A450; in [4], 0.046 A450.

B3: rabbit monoclonal anti-mouse/human Id3, clone #BCH-4/#6-1 (antibody, V domains shown)
VH: QSVEESGGRLVTPGTPLTLTCTASGFSLSNVYIHWVRQAPGKGLEWIGYISDGDTARYATWAKGRFTISKTSSTTVNLKMTSLTTEDTATYFCARQGFNIWGPGTLVTVSL
VL: AVLTQTPSPVSAAVGGTVSISCQSSQSVWNNNWLSWFQQKPGQPPKLLIYETSKLESGVPSRFKGSGSGTQFTLTISDVQCDDAATYYCLGGYWTTSDNNVFGGGTEVVVK
notes: Rabbit IgG from a rabbit hybridoma; also called m/h Id3 MoAb 6-1
In the case of B3, the “Cross-reactivity (%)” value in assay [5] is less than 1%; in assay [6], 100%; in [7] it was less than 1%; in assay [8] it was 100%; in assay [9], less than 1%; in assay [10], less than 1%. The A450 in assay [11] worked out at 3.81 A450; in assay [1], 0.066 A450; in [2], 0.054 A450; in [3], 0.046 A450; in assay [4], 0.047 A450.

B4: rabbit monoclonal anti-mouse/human Id3, clone #BCH-4/#17-3 (antibody, V domains shown)
VH: QSVEESGGRLVTPGTPLTLTCTASGFSLSNVYIHWVRQAPGKGLEWIGYISDGDTARYATWAKGRFTISKTSSTTVNLKMTSLTTEDTATYFCARQGFNIWGPGTLVTVSL
VL: AVLTQTPSPVSAAVGGTVSISCQSSQSVWNNNWLSWFQQKPGQPPKLLIYETSKLESGVPSRFKGSGSGTQFTLTISDVQCDDAATYYCLGGYWTTSDNNVFGGGTEVVVK
notes: Rabbit IgG from a rabbit hybridoma; also called m/h Id3 MoAb 17-3; BCH-3/#17-3
For the molecule B4, the “Cross-reactivity (%)” value in [5] is less than 1%; in assay [6] it was 100%; in [7] it was less than 1%; in assay [8] it was 100%; in [9], less than 1%; in assay [10], less than 1%. The A450 amounted to 3.74 A450 in assay [11]; 0.069 A450 in assay [1]; 0.053 A450 in [2]; 0.052 A450 in assay [3]; 0.048 A450 in [4].

B5: rabbit monoclonal anti-mouse/human Id3, clone #BCH-4/#42-1 (antibody, V domains shown)
VH: QSVEESGGRLVTPGTPLTLTCTASGFSLSSYYIHWVRQAPGKALEWIGYISDGGTTYYASWAKGRFTISKTSSTTVDLKMTSLTTEDTATYFCARQGFNIWGPGTLVTVSL
VL: AVLTQTPSPVSAAVGGTVTISCQSSQSVYNNNWLSWFQQKSGQPPKLLIYETSKLESGVPSRFKGSGSGTQFTLTIIDVQCDDAATYYCLGGYWSTSDNNIFGGGTEVVVK
notes: Rabbit IgG from a rabbit hybridoma; also called m/h Id3 MoAb 42-1
For B5, the “Cross-reactivity (%)” value in assay [5] was less than 1%; in assay [6] it was 100%; in assay [7], less than 1%; in assay [8], 100%; in [9], less than 1%; in assay [10], less than 1%. Further, the A450 worked out at 3.63 A450 in [11]; 0.075 A450 in assay [1]; 0.049 A450 in assay [2]; 0.05 A450 in assay [3]; 0.045 A450 in [4].
